Tested on: six V600E BRAF melanoma cell lines
Test: Screening of recombinant RTK ligands for ability to confer resistance to BRAFi (PLX4720) or MEKi (PD184352) (Table 4)
Assay type: cell-based, human
Set-up: ability of recombinant RTK ligand to confer resistance / ability of recombinant RTK ligand to confer resistance (screening value): scale not given here
Description: HGF is the only one that can substantially confer drug resistance to the cell lines.
The complexity of the tumor microenvironment is much greater than an in vitro co-culture system. Therefore, the inventors explored whether the activation of other RTKs could result in a similar resistance as that observed with the activation of MET. To this end, six V600E BRAF melanoma cell lines were tested for their resistance to either BRAFi (PLX4720) or MEKi (PD184352) after the addition of 22 RTK ligands that have the potential of activating almost all known RTKs. […] The activation of a selected subset of these RTKs was confirmed by western blotting and by high throughput tyrosine kinase phosphorylation profiling.

B1: Wnt1 (protein, UniProt P04628 28-370, looked up)
Proto-oncogene Wnt-1: ANSSGRWWGIVNVASSTNLLTDSKSLQLVLEPSLQLLSRKQRRLIRQNPGILHSVSGGLQSAVRECKWQFRNRRWNCPTAPGPHLFGKIVNRGCRETAFIFAITSAGVTHSVARSCSEGSIESCTCDYRRRGPGGPDWHWGGCSDNIDFGRLFGREFVDSGEKGRDLRFLMNLHNNEAGRTTVFSEMRQECKCHGMSGSCTVRTCWMRLPTLRAVGDVLRDRFDGASRVLYGNRGSNRASRAELLRLEPEDPAHKPPSPHDLVYFEKSPNFCTYSGRLGTAGTAGRACNSSSPALDGCELLCCGRGHRTRTQRVTERCNCTFHWCCHVSCRNCTHTRVLHECL
ability of recombinant RTK ligand to confer resistance (screening value) (A2058, PD184352 - 1 uM, ligand 0.4 ng/ml): 1.04
ability of recombinant RTK ligand to confer resistance (screening value) (A2058, PD184352 - 1 uM, ligand 1.6 ng/ml): 0.99
ability of recombinant RTK ligand to confer resistance (screening value) (A2058, PD184352 - 1 uM, ligand 6.25 ng/ml): 0.86
ability of recombinant RTK ligand to confer resistance (screening value) (A2058, PD184352 - 1 uM, ligand 25 ng/ml): 0.98
ability of recombinant RTK ligand to confer resistance (screening value) (A2058, PD184352 - 1 uM, ligand 100 ng/ml): 1.04
ability of recombinant RTK ligand to confer resistance (screening value) (A2058, PLX4720 - 2 uM, ligand 0.4 ng/ml): 1.04
ability of recombinant RTK ligand to confer resistance (screening value) (A2058, PLX4720 - 2 uM, ligand 1.6 ng/ml): 1.00
ability of recombinant RTK ligand to confer resistance (screening value) (A2058, PLX4720 - 2 uM, ligand 6.25 ng/ml): 1.01
ability of recombinant RTK ligand to confer resistance (screening value) (A2058, PLX4720 - 2 uM, ligand 25 ng/ml): 0.98
ability of recombinant RTK ligand to confer resistance (screening value) (A2058, PLX4720 - 2 uM, ligand 100 ng/ml): 1.07
ability of recombinant RTK ligand to confer resistance (screening value) (C32, PD184352 - 1 uM, ligand 0.4 ng/ml): 1.06
ability of recombinant RTK ligand to confer resistance (screening value) (C32, PD184352 - 1 uM, ligand 1.6 ng/ml): 0.96
ability of recombinant RTK ligand to confer resistance (screening value) (C32, PD184352 - 1 uM, ligand 6.25 ng/ml): 1.11
ability of recombinant RTK ligand to confer resistance (screening value) (C32, PD184352 - 1 uM, ligand 25 ng/ml): 1.02
ability of recombinant RTK ligand to confer resistance (screening value) (C32, PD184352 - 1 uM, ligand 100 ng/ml): 1.05
ability of recombinant RTK ligand to confer resistance (screening value) (C32, PLX4720 - 2 uM, ligand 0.4 ng/ml): 1.13
ability of recombinant RTK ligand to confer resistance (screening value) (C32, PLX4720 - 2 uM, ligand 1.6 ng/ml): 1.00
ability of recombinant RTK ligand to confer resistance (screening value) (C32, PLX4720 - 2 uM, ligand 6.25 ng/ml): 1.03
ability of recombinant RTK ligand to confer resistance (screening value) (C32, PLX4720 - 2 uM, ligand 25 ng/ml): 1.01
ability of recombinant RTK ligand to confer resistance (screening value) (C32, PLX4720 - 2 uM, ligand 100 ng/ml): 0.95
ability of recombinant RTK ligand to confer resistance (screening value) (Colo 829, PD184352 - 1 uM, ligand 0.4 ng/ml): 0.94
ability of recombinant RTK ligand to confer resistance (screening value) (Colo 829, PD184352 - 1 uM, ligand 1.6 ng/ml): 0.93
ability of recombinant RTK ligand to confer resistance (screening value) (Colo 829, PD184352 - 1 uM, ligand 6.25 ng/ml): 0.91
ability of recombinant RTK ligand to confer resistance (screening value) (Colo 829, PD184352 - 1 uM, ligand 25 ng/ml): 0.85
ability of recombinant RTK ligand to confer resistance (screening value) (Colo 829, PD184352 - 1 uM, ligand 100 ng/ml): 0.89
ability of recombinant RTK ligand to confer resistance (screening value) (Colo 829, PLX4720 - 2 uM, ligand 0.4 ng/ml): 0.94
ability of recombinant RTK ligand to confer resistance (screening value) (Colo 829, PLX4720 - 2 uM, ligand 1.6 ng/ml): 0.92
ability of recombinant RTK ligand to confer resistance (screening value) (Colo 829, PLX4720 - 2 uM, ligand 6.25 ng/ml): 0.93
ability of recombinant RTK ligand to confer resistance (screening value) (Colo 829, PLX4720 - 2 uM, ligand 25 ng/ml): 0.06
ability of recombinant RTK ligand to confer resistance (screening value) (Colo 829, PLX4720 - 2 uM, ligand 100 ng/ml): 0.93
ability of recombinant RTK ligand to confer resistance (screening value) (G-361, PD184352 - 1 uM, ligand 0.4 ng/ml): 0.99
ability of recombinant RTK ligand to confer resistance (screening value) (G-361, PD184352 - 1 uM, ligand 1.6 ng/ml): 1.00
ability of recombinant RTK ligand to confer resistance (screening value) (G-361, PD184352 - 1 uM, ligand 6.25 ng/ml): 0.93
ability of recombinant RTK ligand to confer resistance (screening value) (G-361, PD184352 - 1 uM, ligand 25 ng/ml): 0.96
ability of recombinant RTK ligand to confer resistance (screening value) (G-361, PD184352 - 1 uM, ligand 100 ng/ml): 0.93
ability of recombinant RTK ligand to confer resistance (screening value) (G-361, PLX4720 - 2 uM, ligand 0.4 ng/ml): 0.94
ability of recombinant RTK ligand to confer resistance (screening value) (G-361, PLX4720 - 2 uM, ligand 1.6 ng/ml): 0.97
ability of recombinant RTK ligand to confer resistance (screening value) (G-361, PLX4720 - 2 uM, ligand 6.25 ng/ml): 1.01
ability of recombinant RTK ligand to confer resistance (screening value) (G-361, PLX4720 - 2 uM, ligand 25 ng/ml): 0.97
ability of recombinant RTK ligand to confer resistance (screening value) (G-361, PLX4720 - 2 uM, ligand 100 ng/ml): 0.98
ability of recombinant RTK ligand to confer resistance (screening value) (SK-MEL-5, PD184352 - 1 uM, ligand 0.4 ng/ml): 0.02
ability of recombinant RTK ligand to confer resistance (screening value) (SK-MEL-5, PD184352 - 1 uM, ligand 1.6 ng/ml): 0.91
ability of recombinant RTK ligand to confer resistance (screening value) (SK-MEL-5, PD184352 - 1 uM, ligand 6.25 ng/ml): 1.06
ability of recombinant RTK ligand to confer resistance (screening value) (SK-MEL-5, PD184352 - 1 uM, ligand 25 ng/ml): 1.02
ability of recombinant RTK ligand to confer resistance (screening value) (SK-MEL-5, PD184352 - 1 uM, ligand 100 ng/ml): 1.14
ability of recombinant RTK ligand to confer resistance (screening value) (SK-MEL-5, PLX4720 - 2 uM, ligand 0.4 ng/ml): 0.93
ability of recombinant RTK ligand to confer resistance (screening value) (SK-MEL-5, PLX4720 - 2 uM, ligand 1.6 ng/ml): 0.90
ability of recombinant RTK ligand to confer resistance (screening value) (SK-MEL-5, PLX4720 - 2 uM, ligand 6.25 ng/ml): 1.01
ability of recombinant RTK ligand to confer resistance (screening value) (SK-MEL-5, PLX4720 - 2 uM, ligand 25 ng/ml): 0.97
ability of recombinant RTK ligand to confer resistance (screening value) (SK-MEL-5, PLX4720 - 2 uM, ligand 100 ng/ml): 1.01
ability of recombinant RTK ligand to confer resistance (screening value) (SK-MEL-28, PD184352 - 1 uM, ligand 0.4 ng/ml): 0.99
ability of recombinant RTK ligand to confer resistance (screening value) (SK-MEL-28, PD184352 - 1 uM, ligand 1.6 ng/ml): 1.18
ability of recombinant RTK ligand to confer resistance (screening value) (SK-MEL-28, PD184352 - 1 uM, ligand 6.25 ng/ml): 0.95
ability of recombinant RTK ligand to confer resistance (screening value) (SK-MEL-28, PD184352 - 1 uM, ligand 25 ng/ml): 1.18
ability of recombinant RTK ligand to confer resistance (screening value) (SK-MEL-28, PD184352 - 1 uM, ligand 100 ng/ml): 1.20
ability of recombinant RTK ligand to confer resistance (screening value) (SK-MEL-28, PLX4720 - 2 uM, ligand 0.4 ng/ml): 1.02
ability of recombinant RTK ligand to confer resistance (screening value) (SK-MEL-28, PLX4720 - 2 uM, ligand 1.6 ng/ml): 1.25
ability of recombinant RTK ligand to confer resistance (screening value) (SK-MEL-28, PLX4720 - 2 uM, ligand 6.25 ng/ml): 0.99
ability of recombinant RTK ligand to confer resistance (screening value) (SK-MEL-28, PLX4720 - 2 uM, ligand 25 ng/ml): 1.15
ability of recombinant RTK ligand to confer resistance (screening value) (SK-MEL-28, PLX4720 - 2 uM, ligand 100 ng/ml): 1.25
